The target of one series is NOX (NADH oxidase) (Gluconobacter thailandicus, UniProt A0ABQ0IUG6). Kind of series: NOX activity: NADH/NADPH and flavin coenzyme specificity. In kind it is biochemical, Gluconobacter oxydans IFO 3255. The conditions noted are these: flavin 0 to 300 μM, FIG. 19. The method, then:
The change in absorbance in the first minute was taken as an initial rate, and the activity was calculated therefrom. The experimental group without the enzyme source was used as a blank. […] The measurement was taken three consecutive times. Their mean value was taken and is shown in the figure with the standard deviation.
The concentration of flavin in the reaction solution was 0 to 300 μM, and the others were adjusted to standard conditions.
The Km value for the substrate was calculated by measuring the activity with a variety of substrate concentrations and drawing a Lineweaver-Burk plot of the results.

The test system of series [1] is NADH oxidase activity in cell free extract of G. oxydans IFO 3255 sldA:Kmr mutant strain. Kind of series: NADH oxidation activity in acetobacterium cell-free extract. The following applies: pH 8.0, 0.03 mM FAD. The class given is biochemical, Gluconobacter oxydans IFO 3255 sldA:Kmr. From the text:
The group without the extract was used as a control.

Another series has as its target FcDH (Gluconobacter thailandicus, UniProt A0ABQ0IZX0). Description: NAD and NADP specificity of FcDH. The class given is biochemical, Gluconobacter oxydans IFO 3255. The conditions noted are these: data not shown. The method, then: The measurement was started when NAD was added. The change in absorbance in the first minute was taken as the initial rate, and the activity was calculated therefrom. […] The measurement was performed consecutively three times. Their mean value was taken and is shown in the figure with the standard deviation.
Since FcDH uses NAD as a coenzyme, the availability of NAD and NADP was measured. The activity was measured by adding NAD or NADP at various concentrations under standard conditions. The Km value for each coenzyme was calculated by drawing a Lineweaver-Burk plot of the results (FIG. 14 (B)).

Substrate in series [2]: C[C@H](O)[C@@H](O)[C@@H](O)[C@H](O)CO
Description: purified protein, by the assay type. The following applies: other: purified FcDH, substrate; Lineweaver-Burk plot; pH 9.5; 30.0 °C.

Substrate in series [3]: OC[C@@H](O)C(O)[C@H](O)CO
Description: purified protein, by the assay type. The conditions noted are these: other: purified FcDH, substrate; Lineweaver-Burk plot; pH 9.5; 30.0 °C.

Substrate in series [4]: OC[C@@H](O)[C@H](O)[C@@H](O)CO
Kind of series: purified protein, by the assay type. The conditions noted are these: other: purified FcDH, substrate; Lineweaver-Burk plot; pH 9.5; 30.0 °C.

Substrate in series [5]: OC[C@@H](O)[C@@H](O)[C@@H](O)CO
Description: purified protein, by the assay type. The conditions noted are these: other: purified FcDH, substrate; Lineweaver-Burk plot; pH 9.5; 30.0 °C.

Substrate in series [6]: OC[C@@H](O)[C@H](O)[C@H](O)[C@@H](O)CO
Description: Substrate specificity of purified FcDH (kcat, Km by Lineweaver-Burk plot). In kind it is biochemical, Gluconobacter oxydans IFO 3255. The conditions noted are these: other: purified FcDH, pH 9.5, 30.0 °C. The method, then: (§1) The measurement was started when NAD was added. […] The measurement was performed consecutively three times.
(§2) Values of kcat and Km for each substrate were obtained by measuring the initial rate of the reaction with various substrate concentrations and drawing a Lineweaver-Burk plot of the results.
(§3) Lineweaver-Burk plots of the results in (A) and (B) are shown in FIG. 12 (C) and (D), respectively. The Km and kcat values were calculated from the range in which substrate inhibition was not observed, i.e., from a straight line represented by a broken line in FIG. 12 (C) and (D).

Substrate in series [7]: OC[C@@H](O)[C@@H](O)[C@H](O)[C@H](O)CO
The series is described as above. The class given is biochemical, Gluconobacter oxydans IFO 3255. The conditions noted are these: other: purified FcDH, pH 9.5, 30.0 °C. The method, then: as §1, §2, §3

Substrate in series [8]: OC[C@@H](O)[C@@H](O)[C@H](O)[C@@H](O)CO
The description is as above. In kind it is biochemical, Gluconobacter oxydans IFO 3255. The following applies: other: purified FcDH, pH 9.5, 30.0 °C. The method, then: as §1, §2, §3

The Km is the concentration of substrate that gives half-maximal velocity.

NOX (NADH oxidase), sequence (A0ABQ0IUG6 entry or part of it): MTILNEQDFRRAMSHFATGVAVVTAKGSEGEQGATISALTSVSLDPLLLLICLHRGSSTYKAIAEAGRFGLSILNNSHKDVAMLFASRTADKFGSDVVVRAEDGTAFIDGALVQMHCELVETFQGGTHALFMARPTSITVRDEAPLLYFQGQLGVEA

As for `Cc1cc2nc3c(=O)[nH]c(=O)nc-3n(C[C@H](O)[C@H](O)[C@H](O)COP(=O)(O)OP(=O)(O)OC[C@H]3O[C@@H](n4cnc5c(N)ncnc54)[C@H](O)[C@@H]3O)c2cc1C` [FAD], the “NOX activation effect of flavin coenzyme” value at NOX (NADH oxidase) is given as “NOX activation effect was observed”. For the same molecule, the “effect of FAD addition on NADH oxidation activity” value in series [1] is reported as “facilitated this activity”.

As to `NC(=O)c1ccc[n+]([C@H]2O[C@@H](COP(=O)([O-])OP(=O)(O)OC[C@H]3O[C@@H](n4cnc5c(N)ncnc54)[C@H](OP(=O)(O)O)[C@@H]3O)[C@H](O)[C@@H]2O)c1` [NADP], the “FcDH activity with NADP as the coenzyme” value on FcDH was “no significant activity”.

B1: FcDH (L-fuculose-producing L-fucitol dehydrogenase) (Gluconobacter thailandicus NBRC 3257) (protein)
chain: MYMEKLRLDGRTAVVTGGAQNIGLACVTALAEAGARVVIADLDEAMAAQSAEELCAEGLDVRSIRMDVTSMENVQAAIKTLHEQEGHLDILVACAGICISEVKAEDMTEGQWLKQVDINLNGMFRCCQAVGRIMLEQKKGAIVAIGSMSGQIVNRPQQQAAYNASKAGVHQYIRSLAAEWAPYGIRANAVAPTYIETTLTRFGMEKPELYDAWIAGTPMGRVGQPDEVASVVHFLASDAASLMTGSIVNVDAGFTVW
For the molecule B1, the Michaelis-Menten constant (Km) in series [2] was 31.9 mM; in series [3] it was 1.3 mM; in series [4], 31.9 mM; in series [5], 20.4 mM; in [6], 30.5 mM; in series [7], 30.2 mM. In addition, the Michaelis-Menten constant (Km) in series [8] is 22.4 mM.

The values above are taken from patent US7575910B2, “Method for producing L-fuculose and method for producing L-fucose” (priority 2004, dated 2009).
